These results are taken from the supplement of paper PMC11246515.

This data set in a line: total protein half-life in vivo (active degradation + dilution); higher = more stable protein.
Where [1] appears, read: E. coli NCM3722 delta-clpP delta-lon delta-hslV, growth: N-lim chemostat, doubling time 6 h.
Where [2] appears, read: E. coli NCM3722 delta-clpP, growth: N-lim chemostat, doubling time 6 h.
Setting [3] is: E. coli NCM3722 delta-hslV, growth: N-lim chemostat, doubling time 6 h.
Setting [4] is: E. coli NCM3722 delta-lon, growth: N-lim chemostat, doubling time 6 h.
The mark [5] stands for this setting: E. coli NCM3722 delta-smpB, growth: N-lim chemostat, doubling time 6 h.
[6] abbreviates: wild type E. coli NCM3722, growth: C-lim chemostat, doubling time 3 h.
Where [7] appears, read: wild type E. coli NCM3722, growth: C-lim chemostat, doubling time 6 h.
Where [8] appears, read: wild type E. coli NCM3722, growth: C-lim chemostat, doubling time 12 h.
The mark [9] stands for this setting: wild type E. coli NCM3722, growth: N-lim chemostat, doubling time 6 h.
Where [10] appears, read: wild type E. coli NCM3722, growth: N-lim chemostat, doubling time 12 h.
The mark [11] stands for this setting: wild type E. coli NCM3722, growth: P-lim chemostat, doubling time 6 h.
[12] abbreviates: wild type E. coli NCM3722, growth: P-lim chemostat, doubling time 12 h.

± gives the standard deviation of the averaged measurements.

For “MTLRKILALTCLLLPMMASAHQFETGQRVPPIGITDRGELVLDKDQFSYKTWNSAQLVGKVRVLQHIAGRTSAKEKNATLIEAIKSAKLPHDRYQTTTIVNTDDAIPGSGMFVRSSLESNKKLYPWSQFIVDSNGVALGAWQLDEESSAVVVLDKDGRVQWAKDGALTPEEVQQVMDLLQKLLK”, the “total protein half-life in vivo” value by setting is: under setting [1], 3.41 ± 0.29 h; under setting [2], 4.29 ± 0.11 h; under setting [3], 5.19 h; under setting [4], 5.62 ± 0.11 h; under setting [5], 5.29 ± 0.49 h; under setting [6], 2.78 ± 0.033 h. The “total protein half-life in vivo” value under setting [7] turned out to be 4.952 ± 0.046 h; the “total protein half-life in vivo” value under setting [8] came out at 7.33 ± 1.6 h; the “total protein half-life in vivo” value under setting [9] was 5.43 ± 0.29 h; the “total protein half-life in vivo” value under setting [10] amounted to 7.61 ± 2.1 h; the “total protein half-life in vivo” value under setting [11] came out at 4.74 ± 1.5 h; the “total protein half-life in vivo” value under setting [12] was found to be 8.359 ± 0.082 h.
“MTPGGQAQIGNVDLVKQLNSAAVYRLIDQYGPISRIQIAEQSQLAPASVTKITRQLIERGLIKEVDQQASTGGRRAISIVTETRNFHAIGVRLGRHDATITLFDLSSKVLAEEHYPLPERTQQTLEHALLNAIAQFIDSYQRKLRELIAISVILPGLVDPDSGKIHYMPHIQVENWGLVEALEERFKVTCFVGHDIRSLALAEHYFGASQDCEDSILVRVHRGTGAGIISNGRIFIGRNGNVGEIGHIQVEPLGERCHCGNFGCLETIAANAAIEQRVLNLLKQGYQSRVPLDDCTIKTICKAANKGDSLASEVIEYVGRHLGKTIAIAINLFNPQKIVIAGEITEADKVLLPAIESCINTQALKAFRTNLPVVRSELDHRSAIGAFALVKRAMLNGILLQHLLEN [P0AF20]”: the “total protein half-life in vivo” value worked out at 5.96 ± 0.13 h under setting [1]; 6.14 ± 0.17 h under setting [2]; 5.92 ± 0.068 h under setting [3]; 6.27 ± 0.59 h under setting [4]; 5.92 ± 1.2 h under setting [5]; 2.98 ± 0.067 h under setting [6]. In addition, the “total protein half-life in vivo” value was 6.44 ± 0.24 h under setting [7]; 11.3 ± 1.7 h under setting [8]; 5.9 ± 0.28 h under setting [9]; 13 ± 0.3 h under setting [10]; 6.58 ± 0.7 h under setting [11]; 15.1 ± 0.32 h under setting [12].
As for “MVKVYAPASSANMSVGFDVLGAAVTPVDGALLGDVVTVEAAETFSLNNLGRFADKLPSEPRENIVYQCWERFCQELGKQIPVAMTLEKNMPIGSGLGSSACSVVAALMAMNEHCGKPLNDTRLLALMGELEGRISGSIHYDNVAPCFLGGMQLMIEENDIISQQVPGFDEWLWVLAYPGIKVSTAEARAILPAQYRRQDCIAHGRHLAGFIHACYSRQPELAAKLMKDVIAEPYRERLLPGFRQARQAVAEIGAVASGISGSGPTLFALCDKPETAQRVADWLGKNYLQNQEGFVHICRLDTAGARVLEN”, the “total protein half-life in vivo” value was found to be 5.55 ± 0.88 h under setting [1]; 3.7 ± 0.34 h under setting [2]; 4.29 ± 0.69 h under setting [3]; 5.16 ± 0.65 h under setting [4]; 4.35 ± 0.11 h under setting [5]; 2.73 ± 0.61 h under setting [6]. Further, the “total protein half-life in vivo” value came to 5.63 ± 0.58 h under setting [7]; 8.58 ± 0.091 h under setting [8]; 4.31 ± 0.33 h under setting [9]; 6.8 ± 0.37 h under setting [10]; 6.04 ± 0.13 h under setting [11]; 12.6 ± 0.79 h under setting [12].
In the case of “MDKIHAMQLFIKVAELESFSRAADFFALPKGSVSRQIQALEHQLGTQLLQRTTRRVKLTPEGMTYYQRAKDVLSNLSELDGLFQQDATSISGKLRIDIPPGIAKSLLLPRLSEFLYLHPGIELELSSHDRPVDILHDGFDCVIRTGALPEDGVIARPLGKLTMVNCASPHYLTRFGYPQSPDDLTSHAIVRYTPHLGVHPLGFEVASVNGVQWFKSGGMLTVNSSENYLTAGLAGLGIIQIPRIAVREALRAGRLIEVLPGYRAEPLSLSLVYPQRRELSRRVNLFMQWLAGVMKEYLD”, the “total protein half-life in vivo” value stood at 6.09 ± 0.38 h under setting [1]; 4.8 ± 0.34 h under setting [2]; 2.08 h under setting [3]; 3.35 ± 0.51 h under setting [4]; 2.76 h under setting [5]; 2.32 h under setting [6]. The “total protein half-life in vivo” value runs as follows: under setting [7], 3.43 ± 0.34 h; under setting [8], 7.24 ± 3.2 h.
Regarding “MATIKDVARLAGVSVATVSRVINNSPKASEASRLAVHSAMESLSYHPNANARALAQQTTETVGLVVGDVSDPFFGAMVKAVEQVAYHTGNFLLIGNGYHNEQKERQAIEQLIRHRCAALVVHAKMIPDADLASLMKQMPGMVLINRILPGFENRCIALDDRYGAWLATRHLIQQGHTRIGYLCSNHSISDAEDRLQGYYDALAESGIAANDRLVTFGEPDESGGEQAMTELLGRGRNFTAVACYNDSMAAGAMGVLNDNGIDVPGEISLIGFDDVLVSRYVRPRLTTVRYPIVTMATQAAELALALADNRPLPEITNVFSPTLVRRHSVSTPSLEASHHATSD”, the “total protein half-life in vivo” value by setting is: under setting [1], 5.91 ± 1.8 h; under setting [3], 3.24 ± 0.35 h; under setting [4], 2.72 ± 0.32 h; under setting [5], 2.572 ± 0.0072 h; under setting [6], 2.29 ± 0.2 h; under setting [7], 4.35 ± 0.17 h. For the same sequence, the “total protein half-life in vivo” value runs as follows: under setting [8], 7.06 ± 0.13 h; under setting [9], 2.8 ± 0.21 h; under setting [10], 3.77 ± 0.39 h; under setting [11], 3.26 ± 0.047 h; under setting [12], 6.28 ± 0.3 h.
For “MRKLTALFVASTLALGAANLAHAADTTTAAPADAKPMMHHKGKFGPHQDMMFKDLNLTDAQKQQIREIMKGQRDQMKRPPLEERRAMHDIIASDTFDKVKAEAQIAKMEEQRKANMLAHMETQNKIYNILTPEQKKQFNANFEKRLTERPAAKGKMPATAE”, the “total protein half-life in vivo” value was 3.6 h under setting [2]; 4.86 ± 2.6 h under setting [4]; 4.4 ± 1.1 h under setting [5]; 2.63 h under setting [6]; 4.54 ± 0.28 h under setting [7]; 8.06 ± 4.6 h under setting [8]. The “total protein half-life in vivo” value reads like this: under setting [10], 1.93 h; under setting [11], 3.86 ± 0.27 h; under setting [12], 6.54 ± 0.43 h.
Consider “MVAENQPGHIDQIKQTNAGAVYRLIDQLGPVSRIDLSRLAQLAPASITKIVREMLEAHLVQELEIKEAGNRGRPAVGLVVETEAWHYLSLRISRGEIFLALRDLSSKLVVEESQELALKDDLPLLDRIISHIDQFFIRHQKKLERLTSIAITLPGIIDTENGIVHRMPFYEDVKEMPLGEALEQHTGVPVYIQHDISAWTMAEALFGASRGARDVIQVVIDHNVGAGVITDGHLLHAGSSSLVEIGHTQVDPYGKRCYCGNHGCLETIASVDSILELAQLRLNQSMSSMLHGQPLTVDSLCQAALRGDLLAKDIITGVGAHVGRILAIMVNLFNPQKILIGSPLSKAADILFPVISDSIRQQALPAYSQHISVESTQFSNQGTMAGAALVKDAMYNGSLLIRLLQG”, for which the “total protein half-life in vivo” value is, setting by setting: under setting [1], 5.81 ± 0.28 h; under setting [2], 6.92 ± 0.73 h; under setting [4], 6.12 ± 0.57 h; under setting [5], 6.02 ± 0.33 h; under setting [6], 2.89 ± 0.014 h; under setting [7], 5.92 ± 0.69 h. Besides, the “total protein half-life in vivo” value is, setting by setting: under setting [8], 9.65 ± 0.51 h; under setting [9], 5.85 ± 0.26 h; under setting [10], 12.8 ± 0.51 h; under setting [11], 6.19 ± 1 h; under setting [12], 12.4 ± 0.56 h.
